From US20210238260
Positions count from the first letter of the chain named. Names and notes keep the numbering of the source.

Target: Factor X (FX), P00742
Sequence (P00742 whole entry, looked up): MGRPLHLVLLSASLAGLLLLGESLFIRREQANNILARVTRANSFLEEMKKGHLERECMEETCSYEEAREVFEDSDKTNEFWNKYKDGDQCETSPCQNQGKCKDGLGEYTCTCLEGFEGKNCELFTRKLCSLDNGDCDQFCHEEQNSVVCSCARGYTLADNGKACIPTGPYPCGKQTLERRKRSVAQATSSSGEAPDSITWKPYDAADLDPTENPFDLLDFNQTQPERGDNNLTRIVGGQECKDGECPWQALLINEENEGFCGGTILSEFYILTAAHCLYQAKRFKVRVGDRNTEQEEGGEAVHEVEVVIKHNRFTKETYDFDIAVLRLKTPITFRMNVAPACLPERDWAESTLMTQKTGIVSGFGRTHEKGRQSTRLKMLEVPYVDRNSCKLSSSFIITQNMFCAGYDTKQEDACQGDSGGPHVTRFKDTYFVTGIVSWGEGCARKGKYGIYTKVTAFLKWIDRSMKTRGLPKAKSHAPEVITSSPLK

B1: FIXa Y155F/K228N/R318Y/R338E/R403E/E410N (protein)
chain 1: YNSGKLEEFVQGNLERECMEEKCSFEEAREVFENTERTTEFWKQYVDGDQCESNPCLNGGSCKDDINSYECWCPFGFEGKNCELDVTCNIKNGRCEQFCKNSADNKVVCSCTEGYRLAENQKSCEPAVPFPCGRVSVSQTSKLTR
chain 2: VVGGEDAKPGQFPWQVVLNGKVDAFCGGSIVNEKWIVTAAHCVETGVNITVVAGEHNIEETEHTEQKRNVIRIIPHHNYNAAINKYNHDIALLELDEPLVLNSYVTPICIADKEYTNIFLKFGSGYVSGWGRVFHKGYSALVLQYLRVPLVDRATCLESTKFTIYNNMFCAGFHEGGRDSCQGDSGGPHVTEVEGTSFLTGIISWGEECAMKGKYGIYTKVSEYVNWIKNKTKLT
KM (FX activation by FIXa in the Xase complex with FVIIIa, PC/PS vesicles and Ca2+): 0.0408 µM

B2: FIXa A103N/N105S/K247N/N249S/R318Y/R338E/R403E/E410N (protein)
chain 1: B1 chain 1 with A103N, N105S
chain 2: B1 chain 2 with N48K, K67N, N69S
KM (FX activation by FIXa in the Xase complex with FVIIIa, PC/PS vesicles and Ca2+): 0.028 µM

B3: FIXa D104N/K106S/Y155F/K247N/N249S/R318Y/R338E/R403E/E410N (protein)
chain 1: B1 chain 1 with D104N, K106S
chain 2: B1 chain 2 with N48K, K67N, N69S
KM (FX activation by FIXa in the Xase complex with FVIIIa, PC/PS vesicles and Ca2+): 0.0518 µM

B4: FIXa variant D203N/F205T/K228N (protein)
chain 1: B1 chain 1
chain 2: B1 chain 2 with D23N, F25T, Y138R, E158R, E223R, N230E
% of WT kcat/KM: 30% | kcat/KM: 1.4e+07 M⁻¹ s⁻¹

B5: FIXa variant D203N/F205T/R338A (protein)
chain 1: B1 chain 1
chain 2: B1 chain 2 with D23N, F25T, N48K, Y138R, E158A, E223R, N230E
% of WT kcat/KM: 135% | kcat/KM: 6.2e+07 M⁻¹ s⁻¹

B6: FIXa variant A103N/N105S/R318Y/R338E/R403E/E410N (protein)
chain 1: B1 chain 1 with A103N, N105S
chain 2: B1 chain 2 with N48K
% of WT kcat/KM: 318% | kcat/KM: 1.5e+08 M⁻¹ s⁻¹

B7: FIXa variant R338E/R403E/E410N (protein)
chain 1: B1 chain 1
chain 2: B1 chain 2 with N48K, Y138R
% of WT kcat/KM: 411% | kcat/KM: 1.9e+08 M⁻¹ s⁻¹

B8: FIXa R318Y/R338E/R403E/E410S (protein)
chain 1: B1 chain 1
chain 2: B1 chain 2 with N48K, N230S
KM (FX activation by FIXa in the Xase complex with FVIIIa, PC/PS vesicles and Ca2+): 0.0364 µM

B9: FIXa D85N/K228N/R318Y/R338E/R403E/E410N (protein)
chain 1: B1 chain 1 with D85N
chain 2: B1 chain 2
KM (FX activation by FIXa in the Xase complex with FVIIIa, PC/PS vesicles and Ca2+): 0.0393 µM

B10: FIXa variant R318Y/R403E/E410N (protein)
chain 1: B1 chain 1
chain 2: B1 chain 2 with N48K, E158R
% of WT kcat/KM: 54% | kcat/KM: 2.5e+07 M⁻¹ s⁻¹

B11: FIXa variant K293E/R338E/R403E (protein)
chain 1: B1 chain 1
chain 2: B1 chain 2 with N48K, K113E, Y138R, N230E
% of WT kcat/KM: 36% | kcat/KM: 1.7e+07 M⁻¹ s⁻¹

B12: FIXa K247N/N249S/R318Y/R338E/E410N (protein)
chain 1: B1 chain 1
chain 2: B1 chain 2 with N48K, K67N, N69S, E223R
KM (FX activation by FIXa in the Xase complex with FVIIIa, PC/PS vesicles and Ca2+): 0.0166 µM

B13: FIXa variant R318Y/R338E/R403E/E410N (protein)
chain 1: B1 chain 1
chain 2: B1 chain 2 with N48K
% of WT kcat/KM: 320% | kcat/KM: 1.5e+08 M⁻¹ s⁻¹

B14: FIXa variant K228N/R338E/R403E (protein)
chain 1: B1 chain 1
chain 2: B1 chain 2 with Y138R, N230E
% of WT kcat/KM: 105% | kcat/KM: 4.8e+07 M⁻¹ s⁻¹

B15: FIXa variant Y155F/R318Y/R338E/E410N (protein)
chain 1: B1 chain 1
chain 2: B1 chain 2 with N48K, E223R
% of WT kcat/KM: 810% | kcat/KM: 3.7e+08 M⁻¹ s⁻¹

B16: FIXa variant Y155F/R338E/R403E/E410N (protein)
chain 1: B1 chain 1
chain 2: B1 chain 2 with N48K, Y138R
% of WT kcat/KM: 401% | kcat/KM: 1.8e+08 M⁻¹ s⁻¹

B17: FIXa K247N/N249S/R318Y/R338E/R403E/E410N (protein)
chain 1: B1 chain 1
chain 2: B1 chain 2 with N48K, K67N, N69S
KM (FX activation by FIXa in the Xase complex with FVIIIa, PC/PS vesicles and Ca2+): 0.0392 µM

B18: FIXa Y155F/K247N/N249S/R318Y/R338E/R403E/E410N (protein)
chain 1: B1 chain 1
chain 2: B1 chain 2 with N48K, K67N, N69S
KM (FX activation by FIXa in the Xase complex with FVIIIa, PC/PS vesicles and Ca2+): 0.0363 µM

B19: FIXa variant D203N/F205T/R338E/R403E (protein)
chain 1: B1 chain 1
chain 2: B1 chain 2 with D23N, F25T, N48K, Y138R, N230E
% of WT kcat/KM: 41% | kcat/KM: 1.9e+07 M⁻¹ s⁻¹

B20: FIXa K228N/K247N/N249S (protein)
chain 1: B1 chain 1
chain 2: B1 chain 2 with K67N, N69S, Y138R, E158R, E223R, N230E
KM (FX activation by FIXa in the Xase complex with FVIIIa, PC/PS vesicles and Ca2+): 0.0945 µM

B21: FIXa variant K293A/R338A/R403A (protein)
chain 1: B1 chain 1
chain 2: B1 chain 2 with N48K, K113A, Y138R, E158A, E223A, N230E
% of WT kcat/KM: 53% | kcat/KM: 2.5e+07 M⁻¹ s⁻¹

B22: FIXa variant R318Y/R338E/R403E (protein)
chain 1: B1 chain 1
chain 2: B1 chain 2 with N48K, N230E
% of WT kcat/KM: 134% | kcat/KM: 6.2e+07 M⁻¹ s⁻¹

B23: FIXa variant D104N/K106S/R318Y/R338E/E410N (protein)
chain 1: B1 chain 1 with D104N, K106S
chain 2: B1 chain 2 with N48K, E223R
% of WT kcat/KM: 564% | kcat/KM: 2.6e+08 M⁻¹ s⁻¹

B24: FIXa R318Y/R338E/E410S (protein)
chain 1: B1 chain 1
chain 2: B1 chain 2 with N48K, E223R, N230S
KM (FX activation by FIXa in the Xase complex with FVIIIa, PC/PS vesicles and Ca2+): 0.0164 µM

B25: FIXa variant D203N/F205T/R338E (protein)
chain 1: B1 chain 1
chain 2: B1 chain 2 with D23N, F25T, N48K, Y138R, E223R, N230E
% of WT kcat/KM: 228% | kcat/KM: 1e+08 M⁻¹ s⁻¹

B26: FIXa Y155F/K247N/N249S/R318Y/R338E/E410N (protein)
chain 1: B1 chain 1
chain 2: B1 chain 2 with N48K, K67N, N69S, E223R
KM (FX activation by FIXa in the Xase complex with FVIIIa, PC/PS vesicles and Ca2+): 0.0147 µM

B27: FIXa I251S/R318Y/R338E/E410N (protein)
chain 1: B1 chain 1
chain 2: B1 chain 2 with N48K, I71S, E223R
KM (FX activation by FIXa in the Xase complex with FVIIIa, PC/PS vesicles and Ca2+): 0.0161 µM

B28: FIXa variant D203N/F205T/R318Y (protein)
chain 1: B1 chain 1
chain 2: B1 chain 2 with D23N, F25T, N48K, E158R, E223R, N230E
% of WT kcat/KM: 44% | kcat/KM: 2e+07 M⁻¹ s⁻¹

B29: FIXa variant R318Y/R338E/E410N (protein)
chain 1: B1 chain 1
chain 2: B1 chain 2 with N48K, E223R
% of WT kcat/KM: 727% | kcat/KM: 3.4e+08 M⁻¹ s⁻¹

B30: FIXa I251S/R318Y/R338E/R403E/E410N (protein)
chain 1: B1 chain 1
chain 2: B1 chain 2 with N48K, I71S
KM (FX activation by FIXa in the Xase complex with FVIIIa, PC/PS vesicles and Ca2+): 0.0334 µM

B31: FIXa variant D104N/K106S/R318Y/R338E/R403E/E410N (protein)
chain 1: B1 chain 1 with D104N, K106S
chain 2: B1 chain 2 with N48K
% of WT kcat/KM: 366% | kcat/KM: 1.7e+08 M⁻¹ s⁻¹

B32: FIXa Y155F/I251S/R318Y/R338E/R403E/E410N (protein)
chain 1: B1 chain 1
chain 2: B1 chain 2 with N48K, I71S
KM (FX activation by FIXa in the Xase complex with FVIIIa, PC/PS vesicles and Ca2+): 0.0433 µM

B33: FIXa D104N/K106S/Y155F/K228N/K247N/N249S (protein)
chain 1: B1 chain 1 with D104N, K106S
chain 2: B1 chain 2 with K67N, N69S, Y138R, E158R, E223R, N230E
KM (FX activation by FIXa in the Xase complex with FVIIIa, PC/PS vesicles and Ca2+): 0.0753 µM

B34: FIXa variant Y155F/R318Y/R338E/R403E/E410N (protein)
chain 1: B1 chain 1
chain 2: B1 chain 2 with N48K
% of WT kcat/KM: 406% | kcat/KM: 1.9e+08 M⁻¹ s⁻¹

B35: FIXa variant D203N/F205T/E410N (protein)
chain 1: B1 chain 1
chain 2: B1 chain 2 with D23N, F25T, N48K, Y138R, E158R, E223R
% of WT kcat/KM: 91% | kcat/KM: 4.2e+07 M⁻¹ s⁻¹

B36: FIXa variant Y155F/R318Y/R403E/E410N (protein)
chain 1: B1 chain 1
chain 2: B1 chain 2 with N48K, E158R
% of WT kcat/KM: 78% | kcat/KM: 3.6e+07 M⁻¹ s⁻¹

B37: FIXa D104N/K106S/K228N/K247N/N249S (protein)
chain 1: B1 chain 1 with D104N, K106S
chain 2: B1 chain 2 with K67N, N69S, Y138R, E158R, E223R, N230E
KM (FX activation by FIXa in the Xase complex with FVIIIa, PC/PS vesicles and Ca2+): 0.0771 µM

B38: FIXa variant K228N/R318Y/E410N (protein)
chain 1: B1 chain 1
chain 2: B1 chain 2 with E158R, E223R
% of WT kcat/KM: 264% | kcat/KM: 1.2e+08 M⁻¹ s⁻¹

B39: FIXa D104N/K106S/K247N/N249S/R318Y/R338E/R403E/E410N (protein)
chain 1: B1 chain 1 with D104N, K106S
chain 2: B1 chain 2 with N48K, K67N, N69S
KM (FX activation by FIXa in the Xase complex with FVIIIa, PC/PS vesicles and Ca2+): 0.059 µM

B40: FIXa variant Y155F/R318Y/R338E/R403E (protein)
chain 1: B1 chain 1
chain 2: B1 chain 2 with N48K, N230E
% of WT kcat/KM: 189% | kcat/KM: 8.7e+07 M⁻¹ s⁻¹

B41: FIXa D104N/K106S/I251S/R318Y/R338E/E410N (protein)
chain 1: B1 chain 1 with D104N, K106S
chain 2: B1 chain 2 with N48K, I71S, E223R
KM (FX activation by FIXa in the Xase complex with FVIIIa, PC/PS vesicles and Ca2+): 0.0243 µM
